{
  "source": "the nanobody polyreactivity screen of Harvey et al. (2022)",
  "data": [
    {"assay": "yeast display, Sf9 membrane polyspecificity reagent, FACS + sequencing; frameworks hold sequencing errors", "summary_of_the_method": "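Nanobodies from a synthetic yeast display library (Saccharomyces cerevisiae BJ5465), induced 36–48 hours with galactose, were stained 1 hour at 4 °C with 10% biotinylated, detergent-solubilized Sf9 membrane reagent, enriched on streptavidin microbeads, then FACS-sorted. Anti-HA (expression) and streptavidin (reagent binding) fluorescence set low and high (top ~1%) gates. Polyreactivity labels come from the gate of origin. Genes were colony-PCR amplified, MiSeq 2 × 250 sequenced and filtered by CDR length.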", "values": [
      {"sequence": "QVQLVESGGGLVQAGGSLRLSCAASGFIFGPYAMGWYRPAPGKERELVASISNSGDSTYADSVKGRFTISRDTAKNTVYLQMNSLKPEDTAVYYCNADGFVGTPSVDYDYWGQGTQVTVSS", "polyreactivity (PSR sort gate)": "low polyreactivity"},
      {"sequence": "QVQLVESGGGLVQAGGSLRLICAASGSIFGLYAMGWYRPAPGKEREFVASITYSGGSTYYADSVKGRFTISRDNAKNTVYLQMNSLKPEDTAVYYCAAESYWGYDYWGQGTQVTVSS", "polyreactivity (PSR sort gate)": "high polyreactivity"},
      {"sequence": "QVQLVESGGGLVQAGGSLRLSCAASGSIFDNAMGWYRQAPGKERELVAAISLSGSRTYYADSVKGRFTISRDNAKNTDYLQMNSLKPEDTAVYYCNTELVYYSTYDYWGQGTQVTVSS", "polyreactivity (PSR sort gate)": "low polyreactivity"},
      {"sequence": "QVQLVESGGGLVQAGGSLRLSCAASGFNFYRNTMGWYSQAPGKEREFVAAIRWRGGSTYYADSVKGRFTISRDNAKNTVYLQMNSLKPEDTAVYYCAADTRPGYSGFEYWGQGTQVTVSS", "polyreactivity (PSR sort gate)": "high polyreactivity"},
      {"sequence": "QVQLVESGGGLVQAGGSLRLRCAASGRIFGYYPMGWYRQAPGKERELDADITESGTSTYYADSVKGRFTISRDNAKNTVYLQMNSLKRVDTAVYYCAAGYWWRYALYGYWGQGTQVTVSS", "polyreactivity (PSR sort gate)": "low polyreactivity"},
      {"sequence": "QVQLVESGGGLVQAGGSLRLSCAASGFTLVLNAMGWYRQAPGKERELVAAIRRSAGSTYYADSVKGRFTISRDNAKNTVYLQMNSLKPEDTAVYYCAAGFLWAKYAYGHWGQGTQVTVSS", "polyreactivity (PSR sort gate)": "low polyreactivity"},
      {"sequence": "QVQLVESGGGLVQAGGSLRLSCAASGSTFMDYAMGWYRQAPGKERELVAAISSGGSTNYADSVKGRFTISRDNAKNTVYLQMNSLKPEDTAVYYCNADYYWSRTQEFDYWGQGTQVTVSS", "polyreactivity (PSR sort gate)": "high polyreactivity"},
      {"sequence": "QVQLVEAGGGLVQAGGSLRLSCAASGRTFRWYAMGWYRQAPGKERELVAAITIGGASTYYADSVKGRFTISRDNAKNTVYLQMNSLQPEYTAVNYCNAVFVGNDYWGQGTLVTVSS", "polyreactivity (PSR sort gate)": "low polyreactivity"},
      {"sequence": "QVQLVESGGGLVQAGGSLRLTCAASGFIFWANAMGWYRPAPGKERELVAAIRYSGGRTYYADSVKGRYTISRDNAKNTVFLQKNSLKPEDTAVYYCAKEYKKYGGFVVENDYWGQGTQVNVSS", "polyreactivity (PSR sort gate)": "low polyreactivity"},
      {"sequence": "QVQLVESGGGLVQAGCSLRLSCAASGSIYPYAMGWYRQAPGKERELVDAISFSDDRTYYADSVKGRFTISRDIAKNNVYVQMNSLKPEDTAFYYCDAYYFSADEYEYVYWGQGTQVTLSS", "polyreactivity (PSR sort gate)": "high polyreactivity"},
      {"sequence": "QVQLVESWGGLFQAGGSLRLSCAASGSTFIYNAMGWYRKAPGKERELVAAITWNYGSTYYADSVKGRFTISRDNANNTVYLQMNSLKPEDTAVYYCAADFTIPYWDANFDYWGQGTQVTVSW", "polyreactivity (PSR sort gate)": "low polyreactivity"},
      {"sequence": "QVQLVESGGGLVQAGGSLRLSCAASGFTFSYNAMGWYRQAPGKERELVAAISSTGTSTYYADSVKGRFTISRDNAKNTVYLQMISLKPEDTAVYYCNAYGYDGYYAGRHGYWGQGTQVTVSS", "polyreactivity (PSR sort gate)": "low polyreactivity"},
      {"sequence": "QVQLVESGGGLVQAGGSLRLSCAASGSIFYNAMGWYRQAPGKERELVAAITSGGRTYYADSVKGRFTISRDNAKNTVYLQMNSLKPEDTAVDYCAADVRRVRVGKYDYWGQGTQVTVSS", "polyreactivity (PSR sort gate)": "high polyreactivity"},
      {"sequence": "QVQLVESGGGLVQAGGSLRLSCAASGSTFTTYAMAWYRQAPGKERELVAAISTNGGRTFYADSVKGRFTISRDNAKNTVYLLMNSLKAEDTAVYYCAADRAGSIMNYWGQGTQVTVSS", "polyreactivity (PSR sort gate)": "low polyreactivity"},
      {"sequence": "QVQLVDSGGGLVQAGGSLRLSCAASGSIFQQYAMGWYRQAPGKESELVAAISWGDGSTYYADSVKGRFPISRDNAKNTVYLQMNSLKPEDTAVYYCNAYASAPLWSLEDDYWGQGTQVTVSS", "polyreactivity (PSR sort gate)": "low polyreactivity"},
      {"sequence": "QVQLVESGGGLDQAGGSLRLSCAASGSTLSGNAMGWYRHAPGKERELVAAITSSGGRTYYADSVKGRFTISRDNAKNTVYLQMNSLKPEDTAVYYCAARSRLGRYTYDYCGQGTQVTVSS", "polyreactivity (PSR sort gate)": "high polyreactivity"},
      {"sequence": "QVQLVESGGGLVQAGGSLRLSCAASGFTFNRNAMGWYRQAPGKERFVAAITGSGASTYYADSVKGRFTISRDNAKNTVYLQMNSLKPEDTAVYYCNAEYYAGRYRYDYWGQGTQVTVSS", "polyreactivity (PSR sort gate)": "high polyreactivity"},
      {"sequence": "QVQLVESGGGLVQAGGSIRLTCAASGSTFGKYAMGWYRQAPGKERELVARIDSGDGTYYADSLKGRFTISRDNAKNTVYLKMNSLKAEDTAVYYCAAGYGARRLTYFWPQYARYDYWGQGTQVTVSS", "polyreactivity (PSR sort gate)": "high polyreactivity"},
      {"sequence": "QVQLVESGGRLVQAGGSLRLSCAASGFTFPVYAMGWYRQAPGKERELVAVIRLTGGRTYYADSVKGRFTISRDNAKNTVYLQMNSLKPVDTAVYYCAAGSRSGYGYWGQGTQVTVSS", "polyreactivity (PSR sort gate)": "high polyreactivity"},
      {"sequence": "QVQLVESGGGLVQAGGSLRLSCAASGRTFNTYDMGWYRQAPGKERELVAAITSRGGTTYYADSVKGRFTITRDNAKNTVYLQMNSLKPEDTAVSYCAADYYSWDYQYDYDYWGQGTQVTVSS", "polyreactivity (PSR sort gate)": "low polyreactivity"},
      {"sequence": "QGQLVESGGGLVQAGGSLRLSCAASGSSFANYDMGRYRQAPGKERELVAAITSDGSTYYADSVKGRFTISRDNAKNTVYLQMNSLKPEDTAVYYCAASTPSDAWVDDWGQGTQVTVSS", "polyreactivity (PSR sort gate)": "low polyreactivity"},
      {"sequence": "QVQLVESGGGLVQAGGSLRLSCAASGITFRYYAMGWSRQAPGKERELVADITRSGGTTYYADSVKGRFTISRDNAKNTVYLQMNSLKPEDSAVYYCAVDLNWWGWGLLQYDYWGQGTQVTVSS", "polyreactivity (PSR sort gate)": "high polyreactivity"},
      {"sequence": "QVQLVESGGGLVQAGGSLRLSCAASGRIFQYYTIGWYRQATGKERELVAAIRSSGGITYYADSVKGRFTISRDNAKYTVYLQMNSLKPEDTAVYYCAARWYRSKYDYWGQGTQVTVSS", "polyreactivity (PSR sort gate)": "high polyreactivity"},
      {"sequence": "QVQLVESGGGLVQAGGSLRLSCAASGITFTGYAMGWYRQAPGKERELVAAITSGGGRTYYADSVKGRFTISRDNAKNTVYLQMNSLKPEDTAVYYCATRYVTIVGYDYWGQGTQVTVSS", "polyreactivity (PSR sort gate)": "high polyreactivity"},
      {"sequence": "QVQLVESGGGLVQAGGSLRLSCAASGSIDGRYAMGWYRQAPGKERELVAVITSGGSTNYADSVKGRFTISRDNAKNTVYLQMKSLKPEDTAVYYCAVRPYALHRLADQPGGDDYWGQGTQVTVSS", "polyreactivity (PSR sort gate)": "low polyreactivity"},
      {"sequence": "QVQLVESGGGLDQAGGSLRLSCAASGIIFVKYTMGWYIQAPGKERELDAAISRSGGSTYYADSVKGRFTISRDNAKYTVYLQMNSLKPEDTAVYYCNAGARKVYPGPMDYWGQGTQVTVSS", "polyreactivity (PSR sort gate)": "high polyreactivity"},
      {"sequence": "QVQLVESGGGLVQAGGSLRLSCAASGSIFAIYAMGWYRQAPGKERELVAAISSSSGSTYYADSVKARFTISRDNAKNTVYLQMYSLKPEDTAVYYCAAESGRRIKYWRGYYYWGQGTQVTVSS", "polyreactivity (PSR sort gate)": "low polyreactivity"},
      {"sequence": "QVQLVESGGGLVQAGGSLRLSCAGSGSTFDSYAMGWYRQAPGKERELVAAITRSDASTYYADSVKGRFTISRDNAKNTVYLQMNSLKPEDTAVYYCAADTSLVYYGGDWEYYYWGQGTQVTVSS", "polyreactivity (PSR sort gate)": "low polyreactivity"},
      {"sequence": "QVQLVESGGGLVQAGGSLRLSCPASGSTFGPYAMGWYRQAPGKERELVATISGSGSSTYYADSVKGRFTISRDNAKNTVDLQMNSLKPEDTAFYYCATDLYFDLRYDYWGQGTQVTVSS", "polyreactivity (PSR sort gate)": "low polyreactivity"},
      {"sequence": "QVQLVESGGGLVQAGGSLRLSCAASGGTFNANGMGWYRQAPGKERELVAAISQRAGRTYYADSVKGRFTISRDNAKNTVYLQMNSLKPEDTAVFYCAKRPTDRRFGSGYWGQGTQVTVSS", "polyreactivity (PSR sort gate)": "high polyreactivity"}
    ]}
  ]
}
